This is an account of results in patent US20250277032A1 (BIOND BIOLOGICS, published 2025).

The test has as its target T1, human ILT3 on the cell surface (recombinant human ILT3 exogenously overexpressed on HEK cells); ILT3 on THP-1 … (human, UniProt Q8NHJ6 22-448).
T1 construct: whole, on cells; also called membranal ILT3; hILT3
Nature of the test: flow cytometry on HEK cells overexpressing recombinant human ILT3. For orientation: In flow cytometry, cells or beads pass a laser one at a time.

B1: 7A5 (antibody, V domains shown)
VH: EVKLVESGGGLVKPGGSLKLSCAASGFTFSSYAMSWVRQTPAKRLEWVATISSDGGNTYYTDSVKGRFTISRDNARNTLDLQMSSLRSEDTAMYYCARHDGRGALDYWGQGTSVTVSS
VL: DIQMTQTTSSLSASLGDRVTISCRASQDISNYLNWYQQKPDGTVKLLIYYTSRLHSGVPSRFSGSGSGTDYSLTISNLEQEDIATYFCQQGNTLPWTFGGGTKLEIK
notes: Hybridoma (mouse) antibody
On to B1, for which the binding result is given as “binds”.

B2: 3F6 (antibody, V domains shown)
VH: EVKLVESGGGLVKPGGSLKLSCAASGFTFSSYAMSWVRQTPAKRLEWVAAITFGGGNTYYPDSVKGRFTISRDNARNTLYLQMSSLRSEDTAMYYCARHGDGNYDFYAMDYWGQGTSVTVSS
VL: DIVMTQSPSSLTVTAGEKVTMSCKSSQSLLNSGNQKNYLTWYQQKPGQPPKLLIYWASTRESGVPDRFTGSGSRTDFTLTISRVQAEDLAVYYCQNDYSYPLTFGAGTKLELK
notes: Hybridoma (mouse) antibody
Take B2: the binding result is “binds”.
